From PMC8424649 (2021)

B1: GFP-FAN1, full-length FAN1 (FAN1^FL) [human] / MLH1 (endogenous, human) [human (endogenous in iPSCs, lymphoblastoid cells, U2OS, HEK293T, MSNs, HeLa)] (parent complex)
chain 1: MMSEGKPPDKKRPRRSLSISKNKKKASNSIISCFNNAPPAKLACPVCSKMVPRYDLNRHLDEMCANNDFVQVDPGQVGLINSNVSMVDLTSVTLEDVTPKKSPPPKTNLTPGQSDSAKREVKQKISPYFKSNDVVCKNQDELRNRSVKVICLGSLASKLSRKYVKAKKSIDKDEEFAGSSPQSSKSTVVKSLIDNSSEIEDEDQILENSSQKENVFKCDSLKEECIPEHMVRGSKIMEAESQKATRECEKSALTPGFSDNAIMLFSPDFTLRNTLKSTSEDSLVKQECIKEVVEKREACHCEEVKMTVASEAKIQLSDSEAKSHSSADDASAWSNIQEAPLQDDSCLNNDIPHSIPLEQGSSCNGPGQTTGHPYYLRSFLVVLKTVLENEDDMLLFDEQEKGIVTKFYQLSATGQKLYVRLFQRKLSWIKMTKLEYEEIALDLTPVIEELTNAGFLQTESELQELSEVLELLSAPELKSLAKTFHLVNPNGQKQQLVDAFLKLAKQRSVCTWGKNKPGIGAVILKRAKALAGQSVRICKGPRAVFSRILLLFSLTDSMEDEDAACGGQGQLSTVLLVNLGRMEFPSYTINRKTHIFQDRDDLIRYAAATHMLSDISSAMANGNWEEAKELAQCAKRDWNRLKNHPSLRCHEDLPLFLRCFTVGWIYTRILSRFVEILQRLHMYEEAVRELESLLSQRIYCPDSRGRWWDRLALNLHQHLKRLEPTIKCITEGLADPEVRTGHRLSLYQRAVRLRESPSCKKFKHLFQQLPEMAVQDVKHVTITGRLCPQRGMCKSVFVMEAGEAADPTTVLCSVEELALAHYRRSGFDQGIHGEGSTFSTLYGLLLWDIIFMDGIPDVFRNACQAFPLDLCTDSFFTSRRPALEARLQLIHDAPEESLRAWVAATWHEQEGRVASLVSWDRFTSLQQAQDLVSCLGGPVLSGVCRHLAADFRHCRGGLPDLVVWNSQSRHFKLVEVKGPNDRLSHKQMIWLAELQKLGAEVEVCHVVAVGAKSQSLS
chain 2: MSFVAGVIRRLDETVVNRIAAGEVIQRPANAIKEMIENCLDAKSTSIQVIVKEGGLKLIQIQDNGTGIRKEDLDIVCERFTTSKLQSFEDLASISTYGFRGEALASISHVAHVTITTKTADGKCAYRASYSDGKLKAPPKPCAGNQGTQITVEDLFYNIATRRKALKNPSEEYGKILEVVGRYSVHNAGISFSVKKQGETVADVRTLPNASTVDNIRSIFGNAVSRELIEIGCEDKTLAFKMNGYISNANYSVKKCIFLLFINHRLVESTSLRKAIETVYAAYLPKNTHPFLYLSLEISPQNVDVNVHPTKHEVHFLHEESILERVQQHIESKLLGSNSSRMYFTQTLLPGLAGPSGEMVKSTTSLTSSSTSGSSDKVYAHQMVRTDSREQKLDAFLQPLSKPLSSQPQAIVTEDKTDISSGRARQQDEEMLELPAPAEVAAKNQSLEGDTTKGTSEMSEKRGPTSSNPRKRHREDSDVEMVEDDSRKEMTAACTPRRRIINLTSVLSLQEEINEQGHEVLREMLHNHSFVGCVNPQWALAQHQTKLYLLNTTKLSEELFYQILIYDFANFGVLRLSEPAPLFDLAMLALDSPESGWTEEDGPKEGLAEYIVEFLKKKAEMLADYFSLEIDEEGNLIGLPLLIDNYVPPLEGLPIFILRLATEVNWDEEKECFESLSKECAMFYSIRKQYISEESTLSGQQSEVPGSIPNSWKWTVEHIVYKALRSHILPPKHFTEDGNILQLANLPDLYKVFERC

Variants of: B1
Assay: GFP-Trap pull-down, quantified immunoblot; U2OS cell extracts; n = 5 biological replicates; parent: 100; read off a plot

Row | Variant | percent of parent
1 | chain 1 Q123A | ~110
2 | chain 1 F129A | ~5
3 | chain 1 Y128A | ~1
4 | chain 1 S126A | ~10
